B1: minimal CD3ϵ peptide Ac-PPPVPNPDY-NH2 (residues 180–188) (peptide)
peptide: Ac-PPPVPNPDY-NH2
notes: CD3ϵ residues 180–188 (PRS); MM 1109.3 Da; source: synthetic peptide (bought: Biosynthan)
B2: CD3ε-derived peptide Ac-PPPVPNPDY-NH2 (residues 180–188) (peptide)
peptide: Ac-PPPVPNPDY-NH2
notes: also called minimal CD3ε peptide; source: synthetic peptide, from Biosynthan

Columns and labels:
[1] = target: Nck1-SH3.1 (residues 4–59) (human, UniProt P16333 4-59); assay: crystal structure; Nck1-SH3.1 with 2-fold molar excess of Ac-…-NH2; 0.1 M BisTris/HCl pH 6.5, 2 M (NH4)2SO4; space group I212121, two complexes in the asymmetric unit; conditions: both partners purified
[2] = target: Nck1-SH3.1 (residues 4–59) (human, UniProt P16333 4-59); assay: crystal structure; Nck1-SH3.1 (4-59) with 2-fold molar excess of Ac-…-NH2; 0.1 M Bis-Tris/HCl pH 6.5, 2 M (NH4)2SO4; sitting drop, 22 °C; two complexes in the asymmetric unit (5QU2); conditions: both partners purified

binding result [1] | binding result [2] | Binder
binds | – | B1
– | binds | B2
